This is an account of results in patent publication US6890516.

The test has as its target Drosophila nitric oxide synthase (DNOS) (Drosophila) (UniProt Q27571). The test is described as follows: cell-based or functional assay.

Chain of Drosophila nitric oxide synthase (DNOS) (Drosophila) (Q27571 other isoform, or with tags, fused parts or gaps limits assumed): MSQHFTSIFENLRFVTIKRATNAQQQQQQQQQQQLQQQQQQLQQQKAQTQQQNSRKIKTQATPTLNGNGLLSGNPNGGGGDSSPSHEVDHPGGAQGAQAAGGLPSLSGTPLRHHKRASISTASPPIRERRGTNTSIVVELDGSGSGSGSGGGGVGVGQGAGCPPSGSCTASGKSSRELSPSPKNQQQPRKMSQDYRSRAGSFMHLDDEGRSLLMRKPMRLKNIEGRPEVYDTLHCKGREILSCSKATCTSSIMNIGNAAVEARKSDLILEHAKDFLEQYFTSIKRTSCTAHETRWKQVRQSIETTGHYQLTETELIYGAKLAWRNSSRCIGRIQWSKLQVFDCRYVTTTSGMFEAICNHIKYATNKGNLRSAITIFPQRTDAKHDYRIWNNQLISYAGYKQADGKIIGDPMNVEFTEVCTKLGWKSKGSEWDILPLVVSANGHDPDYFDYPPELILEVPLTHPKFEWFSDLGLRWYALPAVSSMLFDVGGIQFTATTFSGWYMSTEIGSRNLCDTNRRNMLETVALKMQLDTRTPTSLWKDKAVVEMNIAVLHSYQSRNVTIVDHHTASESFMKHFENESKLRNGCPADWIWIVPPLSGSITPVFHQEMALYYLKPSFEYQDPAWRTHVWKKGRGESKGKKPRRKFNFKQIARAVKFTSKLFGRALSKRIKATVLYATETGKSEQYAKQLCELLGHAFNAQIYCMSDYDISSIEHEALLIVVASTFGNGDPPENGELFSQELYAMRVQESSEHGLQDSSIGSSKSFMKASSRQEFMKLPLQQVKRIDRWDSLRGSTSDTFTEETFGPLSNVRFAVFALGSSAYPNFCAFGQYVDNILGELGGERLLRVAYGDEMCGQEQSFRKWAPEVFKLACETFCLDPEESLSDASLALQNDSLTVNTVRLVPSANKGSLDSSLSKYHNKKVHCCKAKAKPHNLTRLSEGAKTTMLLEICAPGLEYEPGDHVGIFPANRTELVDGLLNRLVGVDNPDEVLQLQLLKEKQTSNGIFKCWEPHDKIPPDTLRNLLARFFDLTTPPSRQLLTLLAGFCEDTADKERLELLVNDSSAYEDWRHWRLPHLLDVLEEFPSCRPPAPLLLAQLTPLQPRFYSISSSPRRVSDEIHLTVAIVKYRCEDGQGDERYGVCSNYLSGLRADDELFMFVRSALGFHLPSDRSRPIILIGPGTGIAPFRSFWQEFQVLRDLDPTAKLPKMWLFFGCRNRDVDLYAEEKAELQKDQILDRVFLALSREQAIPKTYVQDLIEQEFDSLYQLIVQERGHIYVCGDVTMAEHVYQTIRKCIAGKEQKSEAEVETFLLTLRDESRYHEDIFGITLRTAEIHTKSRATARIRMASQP

As for calmodulin, the NO synthase activity (L-arginine to L-citrulline conversion, 293 cell extracts, with exogenous Ca2+ and calmodulin) worked out at 0.128 pmol/mg/min; the NO synthase activity with 500 µM W5, a calmodulin antagonist is 0.0222 pmol/mg/min; the NO synthase activity with 500 µM W5, a calmodulin antagonist (% of activity) was 18; the NO synthase activity with 1 mM EGTA, without exogenous Ca2+ or calmodulin came out at 90 % reduction.
